Where two headings read alike, the source gives them in different places. Blank lines part the entries; values can stand above or below the binder they belong to.
Experiments:
[1] = target: T1, human CD16a (158F), full length, on FlpinCHO cells (human, UniProt P08637 17-254); assay: FACS on FlpinCHO cells
How it was run: (§1)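 EC50 comes from fitted concentration–MFI curves. Antibody dilutions were bound to the cells for 1 hour on ice in PBS blocking buffer with 2% BSA, followed by washing and flow cytometric readout.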

[2] = target: T2, human CD16a (158V), full length, on cells (human, UniProt P08637 17-254); assay: FACS on FlpinCHO cells
T2 construct: also used as target for the bought Jurkat-NFAT reporter line stably expressing human CD16a (158V); also called FlpinCHO-human CD16a (158V); FlpinCHO-CD16a (158V)
How it was run: as §1

[3] = target: T3, human CD16b (NA1), full length, on FlpinCHO cells (human, UniProt O75015 17-200); assay: FACS on FlpinCHO cells
T3 construct: also called FlpinCHO-human CD16b (NA1)
T3 chain: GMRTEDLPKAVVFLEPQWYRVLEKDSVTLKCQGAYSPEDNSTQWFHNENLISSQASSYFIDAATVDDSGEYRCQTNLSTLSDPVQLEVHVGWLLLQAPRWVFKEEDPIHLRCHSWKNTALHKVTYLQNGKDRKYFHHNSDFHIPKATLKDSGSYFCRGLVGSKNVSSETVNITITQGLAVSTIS
How it was run: (§2)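 EC50 values come from fitted MFI curves measured by FACS. Antibody dilutions were bound for 1 hour on ice to CD16b-transfected FlpinCHO cells suspended in PBS with 2% BSA blocking solution.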

[4] = target: T4, CD16 on primary human NK cells (human, UniProt P08637 17-254); assay: FACS on human NK cells
T4 construct: whole, on cells; also called resting NK cells
How it was run: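 EC50 came from curve fitting of flow-cytometric MFI. Antibody titrations were bound for 1 hour on ice to fresh human NK cells blocked in PBS with 2% (w/w) BSA (2×10⁶ cells/ml), followed by five PBS washes before acquisition.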

[5] = target: T2, human CD16a (158V), full length, on …; assay: cell-based or functional assay
[6] = target: T1, human CD16a (158F), full length, on …; assay: FACS, biotinylated antibody
[7] = target: T2, human CD16a (158V), full length, on …; assay: FACS, biotinylated antibody
[8] = target: T4, CD16 on primary human NK cells; assay: FACS on human NK cells, biotinylated antibody
Human CD16a (158F)-his = target: T5, Human CD16a (158F)-his (human); assay: SPR (Biacore), antibody captured on Protein A
T5 construct: entry holds ECD, AVI tag, linker and His tag
How it was run: (§3)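 Protein A–captured antibody was probed with CD16-his ECD in HBS-EP+ at 25 °C: five 2-fold dilutions from 200 nM, 240 s at 30 μL/min, dissociation up to 600 s. Glycine pH 1.5 regenerated the chip. Apparent KD came from a double-referenced 1:1 Langmuir fit.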

Human CD16a (158V)-his = target: T6, Human CD16a (158V)-his (human); assay: SPR (Biacore), antibody captured on Protein A
T6 construct: entry holds ECD, AVI tag, linker and His tag
How it was run: as §3

Human CD16b (NA1)-his = target: T7, Human CD16b (NA1)-his (human); assay: SPR (Biacore), antibody captured on Protein A
T7 construct: entry holds ECD, linker, His tag and AVI tag
T7 chain: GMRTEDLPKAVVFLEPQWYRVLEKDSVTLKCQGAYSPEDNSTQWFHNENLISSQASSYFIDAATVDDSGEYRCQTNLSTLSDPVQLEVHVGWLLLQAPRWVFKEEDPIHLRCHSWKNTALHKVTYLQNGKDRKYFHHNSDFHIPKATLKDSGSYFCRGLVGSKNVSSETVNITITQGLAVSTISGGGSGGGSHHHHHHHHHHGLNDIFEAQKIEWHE
How it was run: as §3

[9] = target: T1, human CD16a (158F), full length, on …; assay: FACS, biotinylated antibody, +10 mg/mL human immunoglobulin
[10] = target: T2, human CD16a (158V), full length, on …; assay: as above
[11] = target: T4, CD16 on primary human NK cells; assay: FACS on human NK cells, biotinylated antibody, +10 mg/mL human immunoglobulin
[12] = target: T1, human CD16a (158F), full length, on …; assay: FACS on FlpinCHO cells; remark: listed apart in the source
[13] = target: T2, human CD16a (158V), full length, on …; assay: FACS on FlpinCHO cells; remark: listed apart in the source
[14] = target: T3, human CD16b (NA1), full length, on …; assay: FACS on FlpinCHO cells
How it was run: as §2

[15] = target: T8, human CD16b (NA2), full length, on FlpinCHO cells (human, UniProt O75015 17-200); assay: FACS on FlpinCHO cells
T8 construct: also called FlpinCHO-human CD16b (NA2)
T8 chain: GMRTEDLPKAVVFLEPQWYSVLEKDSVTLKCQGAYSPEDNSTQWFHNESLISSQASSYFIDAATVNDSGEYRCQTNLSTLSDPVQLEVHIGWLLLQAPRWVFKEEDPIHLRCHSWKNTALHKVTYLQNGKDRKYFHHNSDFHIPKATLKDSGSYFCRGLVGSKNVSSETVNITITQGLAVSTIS
How it was run: as §2

[16] = target: T2, human CD16a (158V), full length, on …; assay: cell-based or functional assay; remark: listed apart in the source
[17] = target: T4, CD16 on primary human NK cells; assay: FACS on human NK cells, biotinylated antibody; remark: listed apart in the source
[18] = target: T4, CD16 on primary human NK cells; assay: FACS on human NK cells, biotinylated antibody, +10 mg/mL human immunoglobulin; remark: listed apart in the source
[19] = target: T9, cynomolgus monkey CD16, full length, on FlpinCHO cells (cynomolgus monkey, UniProt Q8SPW2 17-254); assay: FACS on FlpinCHO cells
T9 construct: also called FlpinCHO-cyno CD16; Flipin CHO-cyno CD16
Procedure: The required cells were scale-up cultured in a T-75 cell culture flask to the logarithmic growth phase. The medium was aspirated, and the cells were washed twice with a PBS buffer and then digested with trypsin. After the digestion was terminated, the cells were washed twice with the PBS buffer. The cells were counted, and then the cell pellet was resuspended with a [PBS+2% (w/w) BSA] blocking solution to 2×10⁶ cells/ml, and added to a 96-well FACS reaction plate at 50 μl/well. […] 50 μl/well of the antibody to be detected was added at different concentrations, and incubated on ice for 1 hour. […] The mixture was centrifuged and washed 5 times with PBS, and FACS (FACS Canto II, purchased from BD Company) was used for detection and result analysis. Data analysis was performed by software (CellQuest) to obtain the mean fluorescence intensity (MFI) of the cells. Then, software (GraphPad Prism8) was used for analysis, data fitting and EC50 value calculation.
Flipin CHO-cyno CD16 cells were subjected to FACS detection and data analysis according to the method of Example 3.1.

T9 sequence (Q8SPW2 other isoform, or with tags, fused parts or gaps limits assumed): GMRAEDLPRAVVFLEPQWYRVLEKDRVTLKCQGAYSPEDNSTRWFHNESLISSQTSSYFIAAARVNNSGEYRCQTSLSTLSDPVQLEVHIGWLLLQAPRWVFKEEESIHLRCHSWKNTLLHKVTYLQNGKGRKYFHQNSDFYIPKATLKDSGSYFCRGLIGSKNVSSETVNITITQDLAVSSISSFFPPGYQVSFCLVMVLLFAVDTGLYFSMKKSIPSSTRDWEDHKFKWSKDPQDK

B1: VHH05 VHH-Fc antibody (Fc fusion)
chain: QVQLVESGGGLVQAGGSLRLSCVASSSTVTTYAVRWYRQAPGKQREWVAFISVDGNTNYPDSVKGRFIVSRDNAKNTVYLQMNSLKPEDTADYICRAGGQYWGQGTQVTVSSEPKSSDKTHTCPPCPAPEFEGGPSVFLFPPKPKDTLMISRTPEVTCVVVAVSHEDPEVKFNWYVDGVEVHNAKTKPREEQYNSTYRVVSVLTVLHQDWLNGKEYKCKVSNKALPAPIEKTISKAKGQPREPQVYTLPPSREEMTKNQVSLTCLVKGFYPSDIAVEWESNGQPENNYKTTPPVLDSDGSFFLYSKLTVDKSRWQQGNVFSCSVMHEALHNHYTQKSLSLSPGK
EC50 [1]: 490 pM | Maximum mean fluorescence intensity [1]: 7320 | EC50 [2]: 530 pM | Maximum mean fluorescence intensity [2]: 8100 | EC50 [3]: 960 pM | Maximum mean fluorescence intensity [3]: 42500 | EC50 [4]: 620 pM | Maximum mean fluorescence intensity [4]: 2560 | EC50, activation activity for Jurkat cell [5]: 30 pM | Maximum fluorescence value [5]: 171000 | EC50 [6]: 330 pM | Maximum mean fluorescence intensity [6]: 8780 | EC50 [7]: 740 pM | Maximum mean fluorescence intensity [7]: 12400 | EC50 [8]: 1150 pM | Maximum mean fluorescence intensity [8]: 63200 | Kd (Human CD16a (158F)-his): 8160 pM | koff (Human CD16a (158F)-his): 0.000499 s⁻¹ | kon (Human CD16a (158F)-his): 61200 M⁻¹ s⁻¹ | Kd (Human CD16a (158V)-his): 3730 pM | koff (Human CD16a (158V)-his): 0.000321 s⁻¹ | kon (Human CD16a (158V)-his): 86100 M⁻¹ s⁻¹ | Kd (Human CD16b (NA1)-his): 9280 pM | koff (Human CD16b (NA1)-his): 0.000958 s⁻¹ | kon (Human CD16b (NA1)-his): 103000 M⁻¹ s⁻¹ | EC50 [9]: 1510 pM | Maximum mean fluorescence intensity [9]: 10000 | EC50 [10]: 1700 pM | Maximum mean fluorescence intensity [10]: 13300 | EC50 [11]: 2940 pM | Maximum mean fluorescence intensity [11]: 72800

B2: VHH06-04 humanized VHH-Fc antibody (Fc fusion)
chain: EVQLVESGGGVVQPGGSLRLSCAASGSTWTTYAVRWYRQAPGKQREWVAFISVDGSTNYPDSVKGRFTISRDNSKNTVYLQMNSLRAEDTADYICRVGGQYWGQGTMVTVSSEPKSSDKTHTCPPCPAPEEFGGPSVFLFPPKPKDTLMISRTPEVTCVVVAVSHEDPEVKFNWYVDGVEVHNAKTKPREEQYNSTYRVVSVLTVLHQDWLNGKEYKCKVSNKALPAPIEKTISKAKGQPREPQVYTLPPSREEMTKNQVSLTCLVKGFYPSDIAVEWESNGQPENNYKTTPPVLDSDGSFFLYSKLTVDKSRWQQGNVFSCSVMHEALHNHYTQKSLSLSPGK
EC50 [12]: 390 pM | Maximum mean fluorescence intensity [12]: 9570 | EC50 [13]: 400 pM | Maximum mean fluorescence intensity [13]: 8890 | EC50 [14]: 320 pM | Maximum mean fluorescence intensity [14]: 53000 | Maximum mean fluorescence intensity [15]: 437 | binding result [15]: no binding (tested: 100 nM) | EC50, activation activity for Jurkat cell [16]: 20 pM | Maximum fluorescence value [16]: 159000 | Kd (Human CD16a (158F)-his): 9800 pM | koff (Human CD16a (158F)-his): 0.000467 s⁻¹ | kon (Human CD16a (158F)-his): 47700 M⁻¹ s⁻¹ | EC50 [17]: 1340 pM | Maximum mean fluorescence intensity [17]: 61800 | EC50 [18]: 3990 pM | Maximum mean fluorescence intensity [18]: 71400

Next, values leading:

EC50 [12]: 270 pM | Maximum mean fluorescence intensity [12]: 8890 | EC50 [13]: 230 pM | Maximum mean fluorescence intensity [13]: 8840 | EC50 [14]: 180 pM | Maximum mean fluorescence intensity [14]: 55200 | Maximum mean fluorescence intensity [15]: 296 | binding result [15]: no binding (tested: 100 nM) | EC50, activation activity for Jurkat cell [16]: 30 pM | Maximum fluorescence value [16]: 176000 | Kd (Human CD16a (158F)-his): 26900 pM | koff (Human CD16a (158F)-his): 0.00109 s⁻¹ | kon (Human CD16a (158F)-his): 40300 M⁻¹ s⁻¹ | EC50 [17]: 1330 pM | Maximum mean fluorescence intensity [17]: 53900 | EC50 [18]: 3660 pM | Maximum mean fluorescence intensity [18]: 64900
B3: VHH06-05 humanized VHH-Fc antibody (Fc fusion)
chain: EVQLVESGGGVVQPGGSLRLSCAASGSTWTTYAVRWYRQAPGKQREWVAFISVDGSTNYADSVKGRFTISRDNAKNTVYLQMNSLRAEDTADYICRVGGQYWGQGTMVTVSSEPKSSDKTHTCPPCPAPEEFGGPSVFLFPPKPKDTLMISRTPEVTCVVVAVSHEDPEVKFNWYVDGVEVHNAKTKPREEQYNSTYRVVSVLTVLHQDWLNGKEYKCKVSNKALPAPIEKTISKAKGQPREPQVYTLPPSREEMTKNQVSLTCLVKGFYPSDIAVEWESNGQPENNYKTTPPVLDSDGSFFLYSKLTVDKSRWQQGNVFSCSVMHEALHNHYTQKSLSLSPGK

EC50 [12]: 350 pM | Maximum mean fluorescence intensity [12]: 9340 | EC50 [13]: 410 pM | Maximum mean fluorescence intensity [13]: 8130 | EC50 [14]: 950 pM | Maximum mean fluorescence intensity [14]: 48200 | Maximum mean fluorescence intensity [15]: 74000 | EC50 [19]: 550 pM | Maximum mean fluorescence intensity [19]: 18300 | EC50, activation activity for Jurkat cell [16]: 10 pM | Maximum fluorescence value [16]: 122000 | Kd (Human CD16a (158F)-his): 53900 pM | koff (Human CD16a (158F)-his): 0.0208 s⁻¹ | kon (Human CD16a (158F)-his): 385000 M⁻¹ s⁻¹ | EC50 [17]: 650 pM | Maximum mean fluorescence intensity [17]: 70400 | EC50 [18]: 2480 pM | Maximum mean fluorescence intensity [18]: 72100
B4: VHH12-05 humanized VHH-Fc antibody (Fc fusion)
chain: EVQLVESGGGLVQPGGSLRLSCAASGITFSSYAMGWYRQAPGKQRELVAAINRFGLTNYVDSVKGRFTISRVNAKNSLYLQMNSLRAEDTAVYYCNTGGVYSHPDYYTGTYWGQGTMVTVSSEPKSSDKTHTCPPCPAPEEFGGPSVFLFPPKPKDTLMISRTPEVTCVVVAVSHEDPEVKFNWYVDGVEVHNAKTKPREEQYNSTYRVVSVLTVLHQDWLNGKEYKCKVSNKALPAPIEKTISKAKGQPREPQVYTLPPSREEMTKNQVSLTCLVKGFYPSDIAVEWESNGQPENNYKTTPPVLDSDGSFFLYSKLTVDKSRWQQGNVFSCSVMHEALHNHYTQKSLSLSPGK

Reference: patent US20240343811A1 (SHANDONG SIMCERE BIOPHARMACUTICAL, published 2024)
